Among the data in the supplement of paper PMC12783771 are sfGFP reporter fluorescence values, retold here.

The chains are these.
B1: library; a variant is named by its letters at X, in order (parent)
chain: MNIQIGELAKRTACPVVTIRFYEQEGLLPPPGRSRGNFRLYGEEHVERLQFIRHCRSLDMPLSDVRTLLSYRKRPDQDCGEVXMLLDEHIRQVESRIGALLELKHHLVELREACSGARPAQSCGILQXLSXCVCXTRGTTAHXSD

± gives the standard deviation of the averaged measurements.

Variants of B1 are the subject of series [1]. Kind of series: sfGFP reporter fluorescence (15 h) (µM FITC); higher = higher leak. The conditions noted are these: library round: Round 2; ligand: none. The method, then: (§1)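 Cell-free biosensing: 1 µL Echo-assembled CFE reactions with linear PbrR variant templates (5 nM) and pPbrR-sfGFP reporter, with 1 µM Pb, 30 µM Zn or no ligand; endpoint sfGFP fluorescence after 15 h at 30 °C calibrated as µM FITC. Round 2 ML-predicted PbrR mutants; up to 3 biological replicates.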

Series [2] covers variants of B1. As to the kind of experiment: sfGFP reporter fluorescence (15 h) (µM FITC); higher = stronger transcriptional activation. The conditions noted are these: library round: Round 2. As for the experimental part:
as §1

Take MNIQIGELAKRTACPVVTIRFYEQEGLLPPPGRSRGNFRLYGEEHVERLQFIRHCRSLDMPLSKVRTLLSYRKRPDQDCGEVNMLLDEHIRQVESRIGALLELKHHLVELRHACSGARPAQSCGILQGLSCCVCDTRGTTAHPSD [NGCDP D64K E112H]: the sfGFP reporter fluorescence in series [1] was 0.108 ± 0.012; in series [2] (ligand: 1 µM Pb) it was 0.402 ± 0.043; in series [2] (ligand: 30 µM Zn), 1.44 ± 0.16.
MNIQIGELAKRTACPVVTIRFYEQEGLLPPPGRSRGNFRLYGEEHVERLQFIRHCRSLDMPLSDVRTLLSYRKRPDQDCGEVNMLLDEHIRQVESRIGALLELKHHLVELREACSGARPAQSCGILQILSACVCPTRGTTAHPSD [NIAPP]: the sfGFP reporter fluorescence in series [1] is 0.139 ± 0.0095; in series [2] (ligand: 1 µM Pb), 0.472 ± 0.03; in series [2] (ligand: 30 µM Zn), 2.03 ± 0.16.
The corresponding values for MNIQIGELAKRTACPVVTIRFYEQEGLLPPPGRSRGNFRLYGEEHVERLQFIRHCRSLDMPLSDVRTLLSYRKRPDQDCGEVNMLLDEHIRQVESRIGALLELKHHCVELREACSGARPAQSCGILQILSSCVCDTRGTTAHPSD [NISDP L107C] are 2.65 ± 0.43, 3.61 ± 0.5 and 3.33 ± 0.18.
The corresponding values for MNIQIGELAKRTACPVVTIRFYEQEGLLPPPGRSRGNFRLYGEEHVERLQFIRHCRSLDMPLSDVRTLLSYRKRPDQDCGEVNMLLDEHIRQVESRIGALLELKHHLVLLREACSGARPAQSCGILQHLSDCVCDTRGTTAHWSD [NHDDW E109L] are 0.0479 ± 0.00051, 0.0832 ± 0.0024 and 0.399 ± 0.045.
Regarding MNIQIGELAKRTACPVVTIRFYEQEGLLPPPGRSRGNFRLYGEEHVERLQFIRHCRSLDMPLSDVRTLLSYRKRPDQDCGEVTMLLDEHIRQVESRIGALLELKHHLVELREACSGARPAQSCGILQGLSACVCPTRGTTAHLSD [TGAPL], the sfGFP reporter fluorescence was determined as 0.0604 ± 0.0053 in series [1], 0.109 ± 0.013 in series [2] (ligand: 1 µM Pb) and 0.301 ± 0.034 in series [2] (ligand: 30 µM Zn).
The corresponding values for MNIQIGELAKRTACPVVTIRFYEQEGLLPPPGRSRGNFRLYGEEHVERLQFIRHCRSLDMPLSDVRTLLSYRKRPDQDCGEVMMLLDEHIRQVESRIGALLELKHHLVELREACSGARPAQSCGILQGLSACVCATRGTTAHPSD [MGAAP] are 0.0477 ± 0.0018, 0.0933 ± 0.0042 and 0.0535 ± 0.0035.
As to MNIQIGELAKRTACPVVTIRFYEQEGLLPPPGRSRGNFRLYGEEHVERLQFIRHCRSLDMPLSDVRTLLSYRKRPDQDCGEVNMLLDEHIRQVESRIGALLELKHHVVELREACSGARPAQSCGILQGLSSCVCATRGTTAHYSD [NGSAY L107V], the sfGFP reporter fluorescence in series [1] worked out at 0.12 ± 0.017; in series [2] (ligand: 1 µM Pb), 0.238 ± 0.042; in series [2] (ligand: 30 µM Zn) it was 1.97 ± 0.17.
On the same counts, the results for MNIQIGELAKRTACPVVTIRFYEQEGLLPPPGRSRGNFRLYGEEHVERLQFIRHCRSLDMPLSDVRTLLSYRKRPDQDCGEVNMLLDEHIRQVESRIGALLELKHHLVELREACSGARPAQSCGIIQGLSSCVCRTRGTTAHPSD [NGSRP L126I] are 0.0416 ± 0.0022, 0.0457 ± 0.0021 and 0.333 ± 0.0046.
Consider MNIQIGELAKRTACPVVTIRFYEQEGLLPPPGRSRGNFRLYGEEHVERLQFIRHCRSLDMPLSDVRTLLSYRKRPDQDCGEVNMLLDEHIRQVESRIGALLELKHHLVELREACSGARPAQSCGILQILSECVEDTRGTTAHPSD [NIEDP C134E], for which the sfGFP reporter fluorescence in series [1] is 0.194 ± 0.028; in series [2] (ligand: 1 µM Pb), 0.316 ± 0.0082; in series [2] (ligand: 30 µM Zn), 4.73 ± 3.2.
With MNIQIGELAKRTACPVVTIRFYEQEGLLPPPGRSRGNFRLYGEEHVERLQFIRHCRSLDMPLSDVRTLLSYRKRPDQDCGEVTMLLDEHIRQVESRIGALLELKHHLVELREACSGARPAQSCGILQGLSDCVCDTRGATAHLSD [TGDDL T139A], the values for the sfGFP reporter fluorescence in series [1], in series [2] (ligand: 1 µM Pb) and in series [2] (ligand: 30 µM Zn) were 0.0436 ± 0.001, 0.0619 ± 0.0082 and 0.241 ± 0.015, respectively.
For MNIQIGELAKRTACPVVTIRFYEQEGLLPPPGRSRGNFRLYGEEHVERLQFIRHCRSLDLPLSKVRTLLSYRKRPDQDCGAVNMLLDEHIRQVESRIGALLELKHHLVELREACSGARPAQSCGILQGLSDCVCDTRGTTAHPSD [NGDDP M60L D64K E81A], the sfGFP reporter fluorescence in series [1] is 1.03 ± 0.075; in series [2] (ligand: 1 µM Pb), 2.19 ± 0.059; in series [2] (ligand: 30 µM Zn), 3.74 ± 0.22.
On the same counts, the results for MNIQIGELAKRTACPVVTIRFYEQEGLLPPPGRSRGNFRLYGEEHVERLQFIRHCRSLDMPLSDVRTLLSYRKRPDQDCGEVTMLLDEHIRQVESRIGALLELKHHLVELRIACSGARPAQSCGILQGLSDCVCDTRGTTAHYSD [TGDDY E112I] are 0.0493 ± 0.0015, 0.0522 ± 0.0014 and 0.076 ± 0.0028.
On the same counts, the results for MNIQIGELAKRTACPVVTIRFYEQEGLLPPPGRSRGNFRLYGEEHVERLQFIRHCRSLDMPLSKVRTLLSYRKRPDQDCGEVNMLLDEHIRQVESRIGALLELKHHLEELLEACSGARPAQSCGILQGLSDCVCDTRGTTAHPSD [NGDDP D64K V108E R111L] are 0.0746 ± 0.0031, 0.165 ± 0.012 and 1.8 ± 0.29.
MNIQIGELAKRTACPVVTIRFYEQEGLLPPPGRSRGNFRLYGEEHVERLQFIRHCRSLDMPLSDVRTLLSYRKRPDQDCGEVNMLLDEHIRQVESRIGALLELKHHLVELREACSGARPAQSCGILQGLSSCVCPTRGTTAHLSD [NGSPL]: the sfGFP reporter fluorescence in series [1] came out at 0.077 ± 0.0065; in series [2] (ligand: 1 µM Pb) it was 0.141 ± 0.014; in series [2] (ligand: 30 µM Zn), 1.2 ± 0.12.
